{"source": "paper PMC9587022", "about": "(2022)", "parents": {"B1": {"name": "HA-tagged UL97, wild type, full length (pCGN-HA-UL97) [human cytomegalovirus (HCMV)] / Flag-tagged 14-3-3 η [human] (parent complex)", "chain 1": "MSSALRSRARSASLGTTTQGWDPPPLRRPSRARRRQWMREAAQAAAQAAVQAAQAAAAQVAQAHVDENEVVDLMADEAGGGVTTLTTLSSVSTTTVLGHATFSACVRSDVMRDGEKEDAASDKENLRRPVVPSTSSRGSAASGDGYHGLRCRETSAMWSFEYDRDGDVTSVRRALFTGGSDPSDSVSGVRGGRKRPLRPPLVSLARTPLCRRRVGGVDAVLEENDVELRAESQDSAVASGPGRIPQPLSGSSGEESATAVEADSTSHDDVHCTCSNDQIITTSIRGLTCDPRMFLRLTHPELCELSISYLLVYVPKEDDFCHKICYAVDMSDESYRLGQGSFGEVWPLDRYRVVKVARKHSETVLTVWMSGLIRTRAAGEQQQPPSLVGTGVHRGLLTATGCCLLHNVTVHRRFHTDMFHHDQWKLACIDSYRRAFCTLADAIKFLNHQCRVCHFDITPMNVLIDVNPHNPSEIVRAALCDYSLSEPYPDYNERCVAVFQETGTARRIPNCSHRLRECYHPAFRPMPLQKLLICDPHARFPVAGLRRYCMSELSALGNVLGFCLMRLLDRRGLDEVRMGTEALLFKHAGAACRALENGKLTHCSDACLLILAAQMSYGACLLGEHGAALVSHTLRFVEAKMSSCRVRAFRRFYHECSQTMLHEYVRKNVERLLATSDGLYLYNAFRRTTSIICEEDLDGDCRQLFPE", "chain 2": "MGDREQLLQRARLAEQAERYDDMASAMKAVTELNEPLSNEDRNLLSVAYKNVVGARRSSWRVISSIEQKTMADGNEKKLEKVKAYREKIEKELETVCNDVLSLLDKFLIKNCNDFQYESKVFYLKMKGDYYRYLAEVASGEKKNSVVEASEAAYKEAFEISKEQMQPTHPIRLGLALNFSVFYYEIQNAPEQACLLAKQAFDDAIAELDTLNEDSYKDSTLIMQLLRDNLTLWTSDQQDEEAGEGN"}, "B2": {"name": "HA-tagged UL97, wild type, full length (pCGN-HA-UL97) [human cytomegalovirus (HCMV)] / Flag-tagged 14-3-3 γ [human] (parent complex)", "chain 1": "B1 chain 1", "chain 2": "MVDREQLVQKARLAEQAERYDDMAAAMKNVTELNEPLSNEERNLLSVAYKNVVGARRSSWRVISSIEQKTSADGNEKKIEMVRAYREKIEKELEAVCQDVLSLLDNYLIKNCSETQYESKVFYLKMKGDYYRYLAEVATGEKRATVVESSEKAYSEAHEISKEHMQPTHPIRLGLALNYSVFYYEIQNAPEQACHLAKTAFDDAIAELDTLNEDSYKDSTLIMQLLRDNLTLWTSDQQDDDGGEGNN"}, "B3": {"name": "HA-tagged UL97, wild type, full length (pCGN-HA-UL97) [human cytomegalovirus (HCMV)] / Flag-tagged 14-3-3 θ [human] (parent complex)", "chain 1": "B1 chain 1", "chain 2": "MEKTELIQKAKLAEQAERYDDMATCMKAVTEQGAELSNEERNLLSVAYKNVVGGRRSAWRVISSIEQKTDTSDKKLQLIKDYREKVESELRSICTTVLELLDKYLIANATNPESKVFYLKMKGDYFRYLAEVACGDDRKQTIDNSQGAYQEAFDISKKEMQPTHPIRLGLALNFSVFYYEILNNPELACTLAKTAFDEAIAELDTLNEDSYKDSTLIMQLLRDNLTLWTSDSAGEECDAAEGAEN"}, "B4": {"name": "HA-tagged UL97, wild type, full length (pCGN-HA-UL97) [human cytomegalovirus (HCMV)] / Flag-tagged 14-3-3 β [human] (parent complex)", "chain 1": "B1 chain 1", "chain 2": "MTMDKSELVQKAKLAEQAERYDDMAAAMKAVTEQGHELSNEERNLLSVAYKNVVGARRSSWRVISSIEQKTERNEKKQQMGKEYREKIEAELQDICNDVLELLDKYLIPNATQPESKVFYLKMKGDYFRYLSEVASGDNKQTTVSNSQQAYQEAFEISKKEMQPTHPIRLGLALNFSVFYYEILNSPEKACSLAKTAFDEAIAELDTLNEESYKDSTLIMQLLRDNLTLWTSENQGDEGDAGEGEN"}, "B5": {"name": "HA-tagged UL97, wild type, full length (pCGN-HA-UL97) [human cytomegalovirus (HCMV)] / Flag-tagged 14-3-3 ε [human] (parent complex)", "chain 1": "B1 chain 1", "chain 2": "MDDREDLVYQAKLAEQAERYDEMVESMKKVAGMDVELTVEERNLLSVAYKNVIGARRASWRIISSIEQKEENKGGEDKLKMIREYRQMVETELKLICCDILDVLDKHLIPAANTGESKVFYYKMKGDYHRYLAEFATGNDRKEAAENSLVAYKAASDIAMTELPPTHPIRLGLALNFSVFYYEILNSPDRACRLAKAAFDDAIAELDTLSEESYKDSTLIMQLLRDNLTLWTSDMQGDGEEQNKEALQDVEDENQ"}}}
{"variants_of": "B1", "assay": "co-immunoprecipitation (IP anti-HA, Western blot quantification); U-2 OS cells; WT UL97 0.6 μg, mutant 1.2 μg expression vector; 1 μg Flag-14-3-3 plasmid; read off a plot"}
{"variant": "chain 1 S13A", "ratio to parent": "~0.17"}
{"variant": "chain 1 K355Q", "ratio to parent": "~0.32"}
{"variants_of": "B2", "assay": "co-immunoprecipitation (IP anti-HA, Western blot quantification); U-2 OS cells; WT UL97 0.6 μg, mutant 1.2 μg expression vector; 1 μg Flag-14-3-3 plasmid; read off a plot"}
{"variant": "chain 1 S13A", "ratio to parent": "~0.07"}
{"variant": "chain 1 K355Q", "ratio to parent": "~0.62"}
{"variants_of": "B3", "assay": "co-immunoprecipitation (IP anti-HA, Western blot quantification); U-2 OS cells; WT UL97 0.6 μg, mutant 1.2 μg expression vector; 1 μg Flag-14-3-3 plasmid; read off a plot"}
{"variant": "chain 1 K355Q", "ratio to parent": "~0.2"}
{"variant": "chain 1 S13A", "ratio to parent": "~0.05"}
{"variants_of": "B4", "assay": "co-immunoprecipitation (IP anti-HA, Western blot quantification); U-2 OS cells; WT UL97 0.6 μg, mutant 1.2 μg expression vector; 1 μg Flag-14-3-3 plasmid; read off a plot"}
{"variant": "chain 1 K355Q", "ratio to parent": "~0.45"}
{"variant": "chain 1 S13A", "ratio to parent": "~0.14"}
{"variants_of": "B5", "assay": "co-immunoprecipitation (IP anti-HA, Western blot quantification); U-2 OS cells; WT UL97 0.6 μg, mutant 1.2 μg expression vector; 1 μg Flag-14-3-3 plasmid; read off a plot"}
{"variant": "chain 1 K355Q", "ratio to parent": "~0.42"}
{"variant": "chain 1 S13A", "ratio to parent": "~0.06"}
